The nature of data set [1]: Cyclic voltammetry, midpoint potential. The class given is physicochemical. The note with it: pH 10, measured immediately after generation. The procedure:
Electrochemical data were collected. A 3 mL sample of 3 mM Ni-NCC was prepared in 50 mM sodium borate at pH 10. CV data were collected with a CH1812C Electrochemical Analyzer potentiostat (CH Instruments) with a three-electrode setup (platinum working electrode, Bioanalytical Systems, Inc.; Pt auxiliary electrode; Ag/AgCl reference electrode) in a glass CV cell. Potential was applied from zero to 1.2 V with a scan rate of 0.2 V per second, and current was measured. The same experiment was attempted on a 3 mM Ni-NCC sample in 50 mM potassium phosphate at the same pH. The sample was incubated for 24 hours and analyzed again.
Electrochemical data were collected as previously described. 3-mL samples of 3 mM Ni-GGNCC (SEQ ID NO. 1) and Ni-GGGCC (SEQ ID NO. 3) were prepared in 50 mM potassium phosphate at pH 7.4. After incorporation, pH was raised to 10 to observe more intense signal. Cyclic voltammetry (CV) data were collected with a CH1812C Electrochemical Analyzer potentiostat (CH Instruments) with a three-electrode setup (platinum working electrode, Bioanalytical Systems, Inc.; Pt auxiliary electrode; Ag/AgCl reference electrode) in a glass CV cell. Potential was applied from zero to 1.2 V with a scan rate of 0.2 V per second, and current was measured.

Data set [2] in a line: Photopolymerization of hydroxy ethyl methacrylic acid (HEMA), rate by FTIR. The note with it: light 550 mW cm-2 for 40 seconds. The procedure:
Photopolymerization of hydroxy ethyl methacrylic acid (HEMA) was initiated using a visible light-curing unit (Spectrum® 800, Dentsply, Milford, Del., USA) at an intensity of 550 mW cm-2 for 40 seconds. The subsequent rate of polymerization was measured via FTIR and is reported as a normalized ratio of peak intensities from unreacted and reacted monomer (1455 cm^−1 and 1673 cm^−1). The rate of polymerization was altered by the addition of Ni-NCC and Ni-GGNCC (SEQ ID NO. 1). See FIG. 31, illustrating the percentage of polymer remaining over time.

Data set [3] in a line: Ni-SOD xanthine/xanthine oxidase coupled assay (superoxide scavenging). As to conditions: cytochrome c, absorbance at 550 nm, reaction buffer pH 7.8. The class given is biochemical. The procedure:
Ni-SOD activity was determined, except Ni-NCC was generated in situ using one equivalent NiSO4. Ni-NCC was aged for 0-120 minutes, and the Ni-SOD activity was determined using the standard xanthine/xanthine oxidase method developed by Crappo and coworkers. All reagents were generated in 50 mM potassium phosphate, 100 μM EDTA reaction buffer at pH 7.8 except for Ni-NCC, which was generated in 50 mM potassium phosphate, pH 7.4. 600 μM cytochrome c from bovine heart (Sigma), 300 μM xanthine (Sigma) and enough xanthine oxidase from buttermilk (Sigma) to cause a change in absorbance at […] of 0.02-0.04 AU per minute were added to a final volume of 300 μL with reaction buffer. The change in absorbance at 550 nm was monitored on a Cary 100 UV-Visible spectrophotometer (Varian). The assay was performed with 100 μM Ni-NCC.
Superoxide scavenging activity was determined as reported previously, except Ni-peptides were generated in situ using one equivalent of NiSO4. Superoxide scavenging activity of Ni-GGGCC (SEQ ID NO. 3), Ni-GGNCC (SEQ ID NO. 1), Ni-GNNCC (SEQ ID NO. 4), and Ni-GNGCC (SEQ ID NO. 5) was determined using the standard xanthine/xanthine oxidase method developed by Crapo and coworkers. […] The change in absorbance at 550 nm was monitored on a Cary 100 UV-Visible spectrophotometer (Varian).

No end group written: not given here.

What is called IC50 is the concentration that gives 50% inhibition.

For the substance “Ni-GGGCC: nickel complex of pentapeptide GGGCC (SEQ ID NO. 3) (cysteine pairing not given here; also: nickel complex)”, the midpoint potential in data set [1] was determined as 0.78 V vs Ag/AgCl.

For “XXLLL-GGNCC (not fully specified (N-terminus); cysteine pairing not given here; also: metallated with nickel) [Ni-GGNCC]”, in data set [1], the midpoint potential worked out at 0.8 V vs Ag/AgCl. Also, the “effect on rate of polymerization” value in data set [2] is “slowed the rate of polymerization”. This substance also came in with an IC50 in data set [3] of 9.1 µM.

(Values after patent US9187735B2, “Metal abstraction peptide with superoxide dismutase activity” (University of Kansas, priority 2012, dated 2015).)
